Laboratory results from the supplement of paper PMC7125110.
± gives the standard error. For some assays here: Fewer inactive variants are shown than the library holds.

B1: glmS ribozyme (parent)
chain: AUAAAAGCGCCAGAACUACAGAAAUGUAGUUGACGAGGAGGAGGUUUAUCGAAUUUUCGGCGGAUGCCUCCAAA

Tests used:
Conditions in all cases: with glucosamine-6-phosphate
glucosamine-6-phosphate [1] = variants of: B1; assay: kcat; higher = faster cleavage; RNA array
In short: (§1)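 E. coli RNA polymerase transcribed barcoded ribozyme variants in situ on sequenced MiSeq chips, which were tracked via a hybridised Cy3 probe at 37 °C. Tiles were imaged over ~14 h after glucosamine-6-phosphate (40 μM to 10 mM) in HEPES/KCl/Mg(OAc)2 buffer was flowed in. Normalised per-tile medians were fit to one- or two-exponential decays for kobs, and kcat and KM came from weighted Michaelis–Menten fits.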

glucosamine-6-phosphate [2] = variants of: B1; assay: self-cleavage kobs at 2500 uM GlcN6P; higher = faster cleavage; RNA array
In short: as §1

glucosamine-6-phosphate [3] = variants of: B1; assay: self-cleavage kobs at 10000 uM GlcN6P; higher = faster cleavage; RNA array
In short: as §1

glucosamine-6-phosphate [4] = variants of: B1; assay: KM; higher = weaker cofactor use; RNA array
In short: as §1

glucosamine-6-phosphate [5] = variants of: B1; assay: self-cleavage kobs at 40 uM GlcN6P; higher = faster cleavage; RNA array
In short: as §1

glucosamine-6-phosphate [6] = variants of: B1; assay: self-cleavage kobs at 160 uM GlcN6P; higher = faster cleavage; RNA array
In short: as §1

glucosamine-6-phosphate [7] = variants of: B1; assay: self-cleavage kobs at 640 uM GlcN6P; higher = faster cleavage; RNA array
In short: as §1

Variant	kcat (glucosamine-6-phosphate [1]) [s⁻¹]	self-cleavage kobs at 2500 uM GlcN6P (glucosamine-6-phosphate [2]) [s⁻¹]	self-cleavage kobs at 10000 uM GlcN6P (glucosamine-6-phosphate [3]) [s⁻¹]	KM (glucosamine-6-phosphate [4]) [µM]	self-cleavage kobs at 40 uM GlcN6P (glucosamine-6-phosphate [5]) [s⁻¹]	self-cleavage kobs at 160 uM GlcN6P (glucosamine-6-phosphate [6]) [s⁻¹]	self-cleavage kobs at 640 uM GlcN6P (glucosamine-6-phosphate [7]) [s⁻¹]
A12C C58A	0.000734 ± 2.1e-05	0.000104 ± 1.8e-05	0.000291 ± 4.6e-05	–	–	–	–
C10U G60A C71U	1.14e-05 ± 1.1e-06	–	–	2050 ± 570	–	–	–
A12C U47G	0.00307 ± 0.00048	0.00247 ± 0.00041	0.00245 ± 0.00036	1400 ± 310	9.09e-05 ± 1.3e-05	0.000267 ± 4.4e-05	0.00106 ± 0.00014
A6G C68U	0.000115 ± 2.9e-06	8.68e-05 ± 1.5e-05	0.000107 ± 1e-05	728 ± 79	–	–	5.56e-05 ± 1.1e-05
C11A A39U	0.000122 ± 2.3e-05	7e-05 ± 9.6e-06	9.43e-05 ± 1.2e-05	–	–	–	–
A14G A36G	4.89e-05 ± 6.4e-07	3.69e-05 ± 1.2e-05	4.49e-05 ± 6.3e-06	854 ± 82	–	–	–
G13A C67G	2.66e-05 ± 2.6e-06	3.63e-05 ± 1.7e-05	2.48e-05 ± 6.5e-06	–	< 1e-05	–	2.71e-05 ± 1.2e-05
G29U C70G	7.29e-05 ± 6.3e-06	6.59e-05 ± 7.1e-06	6.77e-05 ± 7.7e-06	354 ± 150	–	–	5.02e-05 ± 8.2e-06
G35U A36C	< 1e-05	< 1e-05	< 1e-05	–	< 1e-05	< 1e-05	–
A12U G13U	0.000141 ± 9.1e-06	9.95e-05 ± 1.1e-05	0.000123 ± 1.8e-05	1130 ± 200	–	–	5.07e-05 ± 9.6e-06
A48G A53G	0.00014 ± 3.1e-05	8.53e-05 ± 1.3e-05	0.000105 ± 1.2e-05	–	–	–	–
C11A U57G	< 1e-05	–	–	–	–	< 1e-05	–
A42G U54A	0.0214 ± 0.0099	–	0.0172 ± 0.004	–	0.000967 ± 0.00013	0.00396 ± 0.0011	0.029 ± 0.0057
C34A G37U C68U	< 1e-05	–	–	–	< 1e-05	–	–
A53C U55C	0.0014 ± 0.00029	0.00148 ± 0.00029	0.00116 ± 0.00017	1150 ± 480	–	0.00015 ± 4e-05	0.00052 ± 9.2e-05
G13C G40C	4.48e-05 ± 2e-05	–	–	–	< 1e-05	< 1e-05	–
A12U U31A	0.0283 ± 0.0065	0.0106 ± 0.0026	0.0257 ± 0.0049	2890 ± 880	0.000416 ± 7.3e-05	0.00177 ± 0.00045	0.00457 ± 0.0011

Variant	kcat (glucosamine-6-phosphate [1]) [s⁻¹]	self-cleavage kobs at 2500 uM GlcN6P (glucosamine-6-phosphate [2]) [s⁻¹]	self-cleavage kobs at 10000 uM GlcN6P (glucosamine-6-phosphate [3]) [s⁻¹]	KM (glucosamine-6-phosphate [4]) [µM]	self-cleavage kobs at 40 uM GlcN6P (glucosamine-6-phosphate [5]) [s⁻¹]	self-cleavage kobs at 160 uM GlcN6P (glucosamine-6-phosphate [6]) [s⁻¹]	self-cleavage kobs at 640 uM GlcN6P (glucosamine-6-phosphate [7]) [s⁻¹]
U30C G66C	< 1e-05	< 1e-05	–	347 ± 120	–	–	< 1e-05
A42G C50U	0.000135 ± 1.2e-05	3.96e-05 ± 1.9e-05	8.57e-05 ± 1.3e-05	5810 ± 1200	–	–	–
A33C A42G	0.00107 ± 0.0002	0.000266 ± 0.0001	0.000716 ± 0.00011	5240 ± 1500	–	–	0.000127 ± 2e-05
A14C C68U	0.000506 ± 4e-05	0.000305 ± 6.4e-05	0.000447 ± 5e-05	1460 ± 250	–	6.97e-05 ± 2.3e-05	0.00015 ± 2.1e-05
A52U C67A	0.000206 ± 1.5e-05	0.000124 ± 1.6e-05	0.000183 ± 2.1e-05	1480 ± 240	–	–	6.53e-05 ± 8.3e-06
C10U U55C	3.56e-05 ± 9.4e-06	–	1.93e-05 ± 9e-06	–	< 1e-05	–	–
U47A C67G	0.000644 ± 7e-05	0.000379 ± 5.1e-05	0.000534 ± 6.4e-05	2020 ± 350	–	5.63e-05 ± 9.9e-06	0.000147 ± 1.3e-05
G29C C67G	8e-05 ± 4.8e-06	4.84e-05 ± 1.1e-05	7.18e-05 ± 1.4e-05	1430 ± 280	–	–	–
G41C A52U	1.27e-05 ± 7.6e-07	–	–	–	< 1e-05	< 1e-05	–
A64U G66U	< 1e-05	–	–	–	< 1e-05	–	–
G29C U65G	0.00083 ± 0.00013	0.000279 ± 7.3e-05	0.000591 ± 0.00015	4400 ± 1000	–	–	0.000115 ± 2.7e-05
C11A G29A	3.97e-05 ± 1.6e-06	–	3.17e-05 ± 9.4e-06	2550 ± 350	–	–	–
G29C U45G	0.000453 ± 2e-05	0.000159 ± 3.6e-05	0.000319 ± 3.3e-05	4250 ± 400	–	–	6.1e-05 ± 1.6e-05
G29C U45C	0.000137 ± 2.1e-05	9.03e-05 ± 2e-05	0.000108 ± 1.8e-05	2120 ± 930	–	–	–
A12U G44C	0.000244 ± 2.8e-05	0.000168 ± 2.9e-05	0.000195 ± 2.3e-05	2040 ± 560	–	–	5.33e-05 ± 1.1e-05
A14G G43U U46G	3.09e-05 ± 3.5e-06	–	–	1610 ± 590	< 1e-05	–	–
U30G G32A	0.00542 ± 0.0022	0.00123 ± 0.0003	0.00438 ± 0.00065	4720 ± 2300	5.91e-05 ± 1.1e-05	0.00017 ± 2.3e-05	0.000709 ± 9.2e-05
